From the supplement of paper PMC12455559
± gives the standard deviation of the averaged measurements.

How the values were obtained:
[1] = melting temperature (DSF); higher = more thermostable
In short: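 Enzymes made in E. coli C41(DE3) were nickel-bead purified and cut free with SUMO protease before testing. Differential scanning fluorimetry gave each melting temperature. For this, 5 μL 5X Sypro Orange was added to 45 μL enzyme (0 to 0.3 mg/mL) in sealed PCR plates, and a Bio-Rad CFX96 read fluorescence from 25 °C over 250 cycles of 0.3 °C each, ramping at 0.3 °C/s.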

[2] = purified protein yield per well (BCA); higher = higher soluble expression
In short: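 The measured quantity is purified protein yield per well, determined with the Pierce Rapid Gold BCA kit. Anything below 25 ug (0.1 mg/mL) lies under the detection threshold. Enzymes were expressed in E. coli C41(DE3) in 2 mL autoinduction cultures with 100 µg/mL kanamycin at 37 °C for 2 h, then 18 °C for 40 h, and purified on an OT-2 robot using Ni-charged magnetic beads and SUMO protease release.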

[3] = PET hydrolysis, aromatic products released after 48 h (umol product/mg enzyme); higher = more PET depolymerization activity
In short: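 The measure of PET hydrolysis activity is aromatic product released into the supernatant, given per mg enzyme. Nickel-purified, SUMO-cleaved enzyme without tag was added at 5 μg (50 μL) to 3.5 mg amorphous PET film or crystalline PET powder in 450 μL of citrate, phosphate or glycine buffer spanning pH 4.5 to 8.5. After 48 h at 40 or 60 °C in sealed plates without shaking, absorbance at 260 and 280 nm was taken against buffer blanks.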

[4] = substrate: cryPow, 40 °C, pH 4.5
[5] = substrate: cryPow, 40 °C, pH 5.5
[6] = substrate: cryPow, 40 °C, pH 6.5
[7] = substrate: cryPow, 40 °C, pH 7.5
[8] = substrate: cryPow, 60 °C, pH 4.5
[9] = substrate: cryPow, 60 °C, pH 5.5
[10] = substrate: cryPow, 60 °C, pH 6.5
[11] = substrate: cryPow, 60 °C, pH 7.5
[12] = substrate: aFilm, 40 °C, pH 4.5
[13] = substrate: aFilm, 40 °C, pH 5.5
[14] = substrate: aFilm, 40 °C, pH 6.5
[15] = substrate: aFilm, 40 °C, pH 7.5
[16] = substrate: aFilm, 60 °C, pH 4.5
[17] = substrate: aFilm, 60 °C, pH 5.5
[18] = substrate: aFilm, 60 °C, pH 6.5
[19] = substrate: aFilm, 60 °C, pH 7.5

Sequence | melting temperature [1] [C] | purified protein yield per well [2] [µg] | PET hydrolysis [3, 4] | PET hydrolysis [3, 5] | PET hydrolysis [3, 6] | PET hydrolysis [3, 7] | PET hydrolysis [3, 8] | PET hydrolysis [3, 9] | PET hydrolysis [3, 10] | PET hydrolysis [3, 11] | PET hydrolysis [3, 12] | PET hydrolysis [3, 13] | PET hydrolysis [3, 14] | PET hydrolysis [3, 15] | PET hydrolysis [3, 16] | PET hydrolysis [3, 17] | PET hydrolysis [3, 18] | PET hydrolysis [3, 19] | PET hydrolysis ([3]; substrate: cryPow, 40 °C, pH 8.5)
MRPGRVCPDSCGCRPSSRRKDATIVQQLRNETIGSPSPHRAPRRFRPRLVRAGLAALLAAGGLFTAQSGSAGAAQNPYERGPAPTVSSIEAPRGPYAVSETRVSSLGVTGFGGGTLYYPTTTRDGTFGAVAISPGYGGTQSSISWLGPRLASQGFVVFTIDTLSTLDQPAGRGGQLLAALDYLTQRSSVRDRVDSGRLGVMGHSMGGGGSLEAAKSRPALQAAIPLTGWNLDKTWQELRTPTLVVGADGDTIAPVSSHSEPFYESLAGSLDKAYLELNGASHFTPNSSNTTIAKYSVSWLKRFIDNDLRYEQFLCPLPRPGATIEEYRGNCPHTS [TEP099] | 50.2 | 68.5 | < 3 | < 3 | < 3 | < 3 | < 3 | < 3 | < 3 | < 3 | – | – | – | – | – | – | – | – | –
NPYERGPAPTTSSIEASRGSFATSTTTVSRLAVSGFGGGTIYYPTSTASGTFGAVSIAPGFTATQSSMAWLGPRLASQGFVVFTIDTITTSDQPDSRGRQLLSSLDYLTQQSSVRSRIDSSRLGVVGHSMGGGGTLEAARSRPSLQAAVPLTGWNLTKSWSTVRVPTLVVGAQADTVAPVASHSIPFYTSLPSSLDKAYLELRGASHFAPNSANTTIAKYTLSWLKRFIDDDTRYEQFLCPIPGTSTTISDYRGNCPHAG [ESM140] | 51.7 | 187 | < 3 | 5 | 22 | 33 | < 3 | 4 | 8 | 9 | – | – | – | – | – | – | – | – | –
NPYERGPDPTTASIEASRGSFATSTVTVSRLAVSGFGGGTIYYPTTTTAGTFGAISIAPGFTATQSSMAWLGPRLASQGFVVFTIDTITTSDQPDSRGRQLLASLDYLTQQSSVRSRIDSSRLGVVGHSMGGGGTLEAARSRPSLQAAVPLTGWNLTKNWSTLRVPTLVVGAQSDTIAPVASHSIPFYTSLPSTLDRAYLELRGASHFAPNTSNTTIAKYTLSWLKRFIDNDTRYEQFLCPIPSSSLSISDYRGNCPHNG [ESM167] | 55.3 | 254 | 2 ± 2.8 | 12.5 ± 2.1 | 21 ± 4.2 | 35.5 ± 0.71 | < 3 | 10.5 ± 2.1 | 20 ± 1.4 | 26 ± 1.4 | < 3 | 4 | 6.5 ± 0.71 | 7.5 ± 0.71 | < 3 | < 3 | 2 ± 2.8 | 2.5 ± 3.5 | –
QAPDRTALARTGPYQVAYYTQLPPAAEFSAATLFFPANKAQAFGGVVIAPGYTEKQVNVQWWGYHLASHGYAVLVLDTNDPEEYPDRRADALMAGVAVLRGENTRMGSTLRGKILEGRIALMGHSMGGGGTLLAANGHSDQLKTIIPFTPWLPGADFSAVSVPTLVLAGEIDRIAAVKDHAWPHYESLTGAVPRMYLEVKGGNHYIANSMTDREDRNPNIDVHDLVGSMVVAWLKTFLDDDESYRELVFGDLPEADRVRISRLEFVE [TEP006] | 53.5 | 215 | < 3 | < 3 | < 3 | < 3 | < 3 | < 3 | < 3 | < 3 | < 3 | < 3 | < 3 | < 3 | < 3 | < 3 | < 3 | < 3 | –
QDNSQGRYRPEGRQIGVAAGREFGERIYEVRTYETNPGIAEFADVMVFYPLTLSFDRPNGAIAFSPGFRAAADNYEWWGPALASLGYNVFILNTNEPTDDLDARADALAALVDFIKAENANPDSPVANKIDEEKIALMGHSMGGGAALAAADRLGDAVGAVIPLALYCCNPGGSFEGDYGSLSAAALVIASAEDTVAPPEAHARLLYDSLGSENKIYMEFAAGDHMFPANGGPELATMGRFTLAFLKAYLDGVAGLEQHVTSPSDEYAERFSTYLAP [TEP035] | 52.3 | 51.6 | < 3 | < 3 | < 3 | < 3 | – | – | – | – | – | – | – | – | – | – | – | – | –
QPTLESLGNPGPYQVAYYDQLPEVDEYGAATLYFPANRGTDFGGVAIAPGFIEQQENIEWWGRHLASYGFAVLVLDTNNPRDDPQVRSEALLAALDVIRGEGARSGSPIRGKILNDRMAVMGHSMGGGGTLLAANRASDQLKAIIPFTPWLPNADFSSVAVPTLVLAGEVDRIASVAEHAWPHFQTLPEGIPRMYVEIAGGNHFIANSTTDQERLNPNIDVHDLVGALGVAWLKYFVDGDEDYRDLIYGELPAEQRARLSRFEFVQ [TEP107] | 44.5 | 57.2 | < 3 | < 3 | < 3 | < 3 | < 3 | < 3 | < 3 | < 3 | – | – | – | – | – | – | – | – | –
QSAEASPPHGPDPTEESITAPRGPFEIDQKTVSRASVRGFGGGTIYYPTDTSEGTFSAVAIAPGYTAGQESLAWLGPRLASQGFVVFTIDTLTRYDQPDSRSRQLLAALDHLTDDSDVADRVDPARRGVMGHSMGGGGSLQAALDDPDLKAAIPMTPWHTTKDFSGVRTPTLIIGAQNDTVAPVSQHAKPFYESLPDDPGKAYLELAGASHFAPNVDNTTIARYSIAWLKRFLDDDTRYEQFLCPPPPDPAISDHQSTCPY [TEP105] | 61.6 | 207 | < 3 | 15.5 ± 0.71 | 46.5 ± 0.71 | 59.5 ± 0.71 | < 3 | 10.5 ± 0.71 | 101 ± 1.4 | 118 ± 13 | < 3 | < 3 | 5 ± 1.4 | 7.5 ± 0.71 | < 3 | < 3 | < 3 | 10 ± 4.2 | –
QSPSAAANPYERGPDPTVSSVAAQRGTFATAEVTVPPGNGFNGGKIYYPTDTSLGTWGAVAAVPGYTARWSAEGAWMGPWLASFGFVVIGIDTNSPNDFDTARGTQLLAALDYLTQKSPVRDRVDPSRLGVIGHSMGGGGAISAAERRPSLKAALPLAPFSPSQNLSSLRVPTMIMGARDDGTVTPSYLDGLYGGMPATTQSAYIELTGGGHGFPTWGNSNVTRRTIPWLKIFLDNDTRYTQFLCPSPADRTGVSRSQTKCPYVPPGTTTPPPSGGQIVGAGSGRCLDVPNASQTNGTQLQLWDCSANANQKWARTGTGELRVYGNKCLDAEGAGTSPGTRVIIWDCHGGQNQRWNVNTSGTITRADPVCAWTRKATAPGTAPRRSWGTAMAGPASAGPSGSED [TEP122] | 54.1 | 186 | < 3 | < 3 | < 3 | < 3 | < 3 | < 3 | < 3 | < 3 | – | – | – | – | – | – | – | – | –
QSSNPYQRGPAPTERSIEASRGPFAVAQTTVSRLSATGFGGGTIYYPTDTSQGRFGGVAISPGFTALQSSIAWLGPRIASQGFIVFTIDTITTLDQPAQRGDQLLAALDYLVQRSPAAVRDRLDPTRLAVMGHSMGGGGTLEAAKKRPSLKAAIPLTGWNLDTIWNDLRVPTLVVGAQLDLIAPILTFSLPFYNTIPASTEKVYLELAGASHFAPNLPDTNIAKYSIAWLKRWVDNDTRYTQFLCPGPRFELAISNYMSSCPM [DP056] | 56.2 | 36 | – | < 3 | < 3 | 4 | – | – | – | – | – | – | – | – | – | – | – | – | 6
QSSSAAANPYERGPAPTVSSVAAQRGTFATAEVTVPPGNGFNGGKIYYPTDTSLGTWGAVAAVPGYTARWSAEGAWMGPWLASFGFVVIGIDTNSPNDYDTARGTQLLAALDYLTRKSPVHDRVDPNRLGVIGHSMGGGGAISAAERRPSLKAAVPLAPFSPSQNLSSLRVPTMIMGARDDGTVTPSYLDGLYSGMPAATQSAYIELTSGGHGFPTWGNSHVTRRAIPWLKIFLDNDTRYTQFLCPSPADSREVSRSQTKCPYVPPGGTTTPPSGEQIVGAASGRCLDVVNSSQTSGAQAHPWDCADRPGQKWARTDAGELRVYSNKCLDAEASGTSAGTRVVIWACHGRQNQRWNVNANGTITSVPSGLCLDTYNGGTGNGAQSVLGNCNGASTQRWTLR [TEP086] | 56.8 | 385 | < 3 | < 3 | < 3 | < 3 | < 3 | < 3 | < 3 | < 3 | < 3 | < 3 | < 3 | < 3 | < 3 | < 3 | < 3 | < 3 | –
QSSSCSLMGDVNESNGVDIVDALLIAQAYVGLNPEMEYNPCADVDCSGSMNIVDALLVAQKYVGLISNFPCQISPEPTTEPTSEPVLFIACGSSSAVGSFQADEYFSGGNTHSNSNSVDISRITVNTPPAGLFNNERYGEMSYNIPGLSAGETYTVTLYFAETYLSSSGSRLFNVSINHSDVLTSFDIYDSAGGQNIAVSYSFITTADNSGNILIDFASVTENPKINGIAIMAGIGPTNVPTPEPTPTPENSGFQRGPDPSLASISANRGTFATAELTFPAGNGFGGGFIYYPTDTSLGTWGAVAICPGGSAKFANEETWMGHWLASFGFVVIGIETNNTFDFPESRGTQLLAALDYLVQKSAVKDRVDPDRLMVMGHSMGGGGAFHAALARSSLKTMVALAPWFNTNLTSPSLSNLRMPTMVISARNDTVVTPASCSAIYDKIPTSTQRAWVELAADDHLGFIKPNYTEMRVLIPWMKIFLDSDERYVQFLCPMANSSNISIYKNSCPLVP [TEP098] | 51.7 | 50.5 | < 3 | < 3 | < 3 | < 3 | – | – | – | – | – | – | – | – | – | – | – | – | –
